Data as given in paper PMC10992996.

Biological target: Human canonical CRB2 (Crumbs homolog 2), Q5IJ48-1
Test: co-IP (FLAG-IP) and Western blot quantification
Details: chain shown with the change; co-transfected in HEK293T cells; three biological replicates; parent: est. 1.0; read off a plot

Human canonical CRB2 (Crumbs homolog 2), Q5IJ48-1, sequence (Q5IJ48 29-1285): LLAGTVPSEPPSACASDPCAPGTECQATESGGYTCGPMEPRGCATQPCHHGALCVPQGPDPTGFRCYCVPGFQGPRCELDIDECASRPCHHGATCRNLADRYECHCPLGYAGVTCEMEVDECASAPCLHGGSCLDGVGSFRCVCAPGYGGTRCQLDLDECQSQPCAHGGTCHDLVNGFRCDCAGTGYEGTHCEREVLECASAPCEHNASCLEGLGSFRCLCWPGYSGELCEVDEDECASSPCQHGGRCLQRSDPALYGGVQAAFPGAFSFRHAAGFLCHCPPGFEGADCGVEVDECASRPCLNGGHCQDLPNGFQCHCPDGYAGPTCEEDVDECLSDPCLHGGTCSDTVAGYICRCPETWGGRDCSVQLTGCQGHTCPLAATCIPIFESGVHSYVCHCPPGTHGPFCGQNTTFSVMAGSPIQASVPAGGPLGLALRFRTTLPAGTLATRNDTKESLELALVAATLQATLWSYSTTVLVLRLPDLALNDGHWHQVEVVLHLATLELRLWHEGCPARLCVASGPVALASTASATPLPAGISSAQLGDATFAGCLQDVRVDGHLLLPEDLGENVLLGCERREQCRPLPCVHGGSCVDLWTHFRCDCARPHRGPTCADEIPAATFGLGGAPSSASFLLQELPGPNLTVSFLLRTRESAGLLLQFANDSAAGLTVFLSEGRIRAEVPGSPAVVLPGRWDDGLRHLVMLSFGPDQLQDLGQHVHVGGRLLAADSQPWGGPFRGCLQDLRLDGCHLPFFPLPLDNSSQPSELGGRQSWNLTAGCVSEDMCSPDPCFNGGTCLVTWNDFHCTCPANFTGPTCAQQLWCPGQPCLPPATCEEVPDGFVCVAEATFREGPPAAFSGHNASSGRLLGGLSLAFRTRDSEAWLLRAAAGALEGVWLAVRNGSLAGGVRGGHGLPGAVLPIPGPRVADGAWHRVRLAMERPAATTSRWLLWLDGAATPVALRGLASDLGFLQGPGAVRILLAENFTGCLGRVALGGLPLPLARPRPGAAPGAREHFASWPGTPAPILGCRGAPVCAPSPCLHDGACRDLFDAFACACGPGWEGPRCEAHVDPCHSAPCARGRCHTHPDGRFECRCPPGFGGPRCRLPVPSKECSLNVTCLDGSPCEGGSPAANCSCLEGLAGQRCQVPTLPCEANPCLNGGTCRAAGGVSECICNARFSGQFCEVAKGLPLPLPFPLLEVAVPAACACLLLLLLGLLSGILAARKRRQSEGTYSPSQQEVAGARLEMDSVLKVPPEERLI

B1: Human canonical CRB1 (Crumbs homolog 1), P82279 p.C681Y (protein)
chain: FCNKNNTRCLSNSCQNNSTCKDFSKDNDCSCSDTANNLDKDCDNMKDPCFSNPCQGSATCVNTPGERSFLCKCPPGYSGTICETTIGSCGKNSCQHGGICHQDPIYPVCICPAGYAGRFCEIDHDECASSPCQNGAVCQDGIDGYSCFCVPGYQGRHCDLEVDECASDPCKNEATCLNEIGRYTCICPHNYSGVNCELEIDECWSQPCLNGATCQDALGAYFCDCAPGFLGDHCELNTDECASQPCLHGGLCVDGENRYSCNCTGSGFTGTHCETLMPLCWSKPCHNNATCEDSVDNYTCHCWPGYTGAQCEIDLNECNSNPCQSNGECVELSSEKQYGRITGLPSSFSYHEASGYVCICQPGFTGIHCEEDVNECSSNPCQNGGTCENLPGNYTCHCPFDNLSRTFYGGRDCSDILLGCTHQQCLNNGTCIPHFQDGQHGFSCLCPSGYTGSLCEIATTLSFEGDGFLWVKSGSVTTKGSVCNIALRFQTVQPMALLLFRSNRDVFVKLELLSGYIHLSIQVNNQSKVLLFISHNTSDGEWHFVEVIFAEAVTLTLIDDSCKEKCIAKAPTPLESDQSICAFQNSFLGGLPVGMTSNGVALLNFYNMPSTPSFVGCLQDIKIDWNHITLENISSGSSLNVKAGCVRKDWCESQPYQSRGRCINLWLSYQCDCHRPYEGPNCLREYVAGRFGQDDSTGYVIFTLDESYGDTISLSMFVRTLQPSGLLLALENSTYQYIRVWLERGRLAMLTPNSPKLVVKFVLNDGNVHLISLKIKPYKIELYQSSQNLGFISASTWKIEKGDVIYIGGLPDKQETELNGGFFKGCIQDVRLNNQNLEFFPNPTNNASLNPVLVNVTQGCAGDNSCKSNPCHNGGVCHSRWDDFSCSCPALTSGKACEEVQWCGFSPCPHGAQCQPVLQGFECIANAVFNGQSGQILFRSNGNITRELTNITFGFRTRDANVIILHAEKEPEFLNISIQDSRLFFQLQSGNSFYMLSLTSLQSVNDGTWHEVTLSMTDPLSQTSRWQMEVDNETPFVTSTIATGSLNFLKDNTDIYVGDRAIDNIKGLQGCLSTIEIGGIYLSYFENVHGFINKPQEEQFLKISTNSVVTGCLQLNVCNSNPCLHGGNCEDIYSSYHCSCPLGWSGKHCELNIDECFSNPCIHGNCSDRVAAYHCTCEPGYTGVNCEVDIDNCQSHQCANGATCISHTNGYSCLCFGNFTGKFCRQSRLPSTVCGNEKTNLTCYNGGNCTEFQTELKCMCRPGFTGEWCEKDIDECASDPCVNGGLCQDLLNKFQCLCDVAFAGERCEVDLADDLISDIFTTIGSVTVALLLILLLAIVASVVTSNKRATQGTYSPSRQEKEGSRVEMWNLMPPPAMERLI
In the case of B1, the ratio to parent is reported as 1.1.

B2: Human canonical CRB1 (Crumbs homolog 1), P82279 p.C948Y (protein)
chain: FCNKNNTRCLSNSCQNNSTCKDFSKDNDCSCSDTANNLDKDCDNMKDPCFSNPCQGSATCVNTPGERSFLCKCPPGYSGTICETTIGSCGKNSCQHGGICHQDPIYPVCICPAGYAGRFCEIDHDECASSPCQNGAVCQDGIDGYSCFCVPGYQGRHCDLEVDECASDPCKNEATCLNEIGRYTCICPHNYSGVNCELEIDECWSQPCLNGATCQDALGAYFCDCAPGFLGDHCELNTDECASQPCLHGGLCVDGENRYSCNCTGSGFTGTHCETLMPLCWSKPCHNNATCEDSVDNYTCHCWPGYTGAQCEIDLNECNSNPCQSNGECVELSSEKQYGRITGLPSSFSYHEASGYVCICQPGFTGIHCEEDVNECSSNPCQNGGTCENLPGNYTCHCPFDNLSRTFYGGRDCSDILLGCTHQQCLNNGTCIPHFQDGQHGFSCLCPSGYTGSLCEIATTLSFEGDGFLWVKSGSVTTKGSVCNIALRFQTVQPMALLLFRSNRDVFVKLELLSGYIHLSIQVNNQSKVLLFISHNTSDGEWHFVEVIFAEAVTLTLIDDSCKEKCIAKAPTPLESDQSICAFQNSFLGGLPVGMTSNGVALLNFYNMPSTPSFVGCLQDIKIDWNHITLENISSGSSLNVKAGCVRKDWCESQPCQSRGRCINLWLSYQCDCHRPYEGPNCLREYVAGRFGQDDSTGYVIFTLDESYGDTISLSMFVRTLQPSGLLLALENSTYQYIRVWLERGRLAMLTPNSPKLVVKFVLNDGNVHLISLKIKPYKIELYQSSQNLGFISASTWKIEKGDVIYIGGLPDKQETELNGGFFKGCIQDVRLNNQNLEFFPNPTNNASLNPVLVNVTQGCAGDNSCKSNPCHNGGVCHSRWDDFSCSCPALTSGKACEEVQWCGFSPCPHGAQCQPVLQGFEYIANAVFNGQSGQILFRSNGNITRELTNITFGFRTRDANVIILHAEKEPEFLNISIQDSRLFFQLQSGNSFYMLSLTSLQSVNDGTWHEVTLSMTDPLSQTSRWQMEVDNETPFVTSTIATGSLNFLKDNTDIYVGDRAIDNIKGLQGCLSTIEIGGIYLSYFENVHGFINKPQEEQFLKISTNSVVTGCLQLNVCNSNPCLHGGNCEDIYSSYHCSCPLGWSGKHCELNIDECFSNPCIHGNCSDRVAAYHCTCEPGYTGVNCEVDIDNCQSHQCANGATCISHTNGYSCLCFGNFTGKFCRQSRLPSTVCGNEKTNLTCYNGGNCTEFQTELKCMCRPGFTGEWCEKDIDECASDPCVNGGLCQDLLNKFQCLCDVAFAGERCEVDLADDLISDIFTTIGSVTVALLLILLLAIVASVVTSNKRATQGTYSPSRQEKEGSRVEMWNLMPPPAMERLI
B2 was tested, and the ratio to parent was 1.

B3: Human canonical CRB1 (Crumbs homolog 1), P82279 p.C1321S (protein)
chain: FCNKNNTRCLSNSCQNNSTCKDFSKDNDCSCSDTANNLDKDCDNMKDPCFSNPCQGSATCVNTPGERSFLCKCPPGYSGTICETTIGSCGKNSCQHGGICHQDPIYPVCICPAGYAGRFCEIDHDECASSPCQNGAVCQDGIDGYSCFCVPGYQGRHCDLEVDECASDPCKNEATCLNEIGRYTCICPHNYSGVNCELEIDECWSQPCLNGATCQDALGAYFCDCAPGFLGDHCELNTDECASQPCLHGGLCVDGENRYSCNCTGSGFTGTHCETLMPLCWSKPCHNNATCEDSVDNYTCHCWPGYTGAQCEIDLNECNSNPCQSNGECVELSSEKQYGRITGLPSSFSYHEASGYVCICQPGFTGIHCEEDVNECSSNPCQNGGTCENLPGNYTCHCPFDNLSRTFYGGRDCSDILLGCTHQQCLNNGTCIPHFQDGQHGFSCLCPSGYTGSLCEIATTLSFEGDGFLWVKSGSVTTKGSVCNIALRFQTVQPMALLLFRSNRDVFVKLELLSGYIHLSIQVNNQSKVLLFISHNTSDGEWHFVEVIFAEAVTLTLIDDSCKEKCIAKAPTPLESDQSICAFQNSFLGGLPVGMTSNGVALLNFYNMPSTPSFVGCLQDIKIDWNHITLENISSGSSLNVKAGCVRKDWCESQPCQSRGRCINLWLSYQCDCHRPYEGPNCLREYVAGRFGQDDSTGYVIFTLDESYGDTISLSMFVRTLQPSGLLLALENSTYQYIRVWLERGRLAMLTPNSPKLVVKFVLNDGNVHLISLKIKPYKIELYQSSQNLGFISASTWKIEKGDVIYIGGLPDKQETELNGGFFKGCIQDVRLNNQNLEFFPNPTNNASLNPVLVNVTQGCAGDNSCKSNPCHNGGVCHSRWDDFSCSCPALTSGKACEEVQWCGFSPCPHGAQCQPVLQGFECIANAVFNGQSGQILFRSNGNITRELTNITFGFRTRDANVIILHAEKEPEFLNISIQDSRLFFQLQSGNSFYMLSLTSLQSVNDGTWHEVTLSMTDPLSQTSRWQMEVDNETPFVTSTIATGSLNFLKDNTDIYVGDRAIDNIKGLQGCLSTIEIGGIYLSYFENVHGFINKPQEEQFLKISTNSVVTGCLQLNVCNSNPCLHGGNCEDIYSSYHCSCPLGWSGKHCELNIDECFSNPCIHGNCSDRVAAYHCTCEPGYTGVNCEVDIDNCQSHQCANGATCISHTNGYSCLCFGNFTGKFCRQSRLPSTVCGNEKTNLTCYNGGNCTEFQTELKCMCRPGFTGEWCEKDIDECASDPCVNGGLCQDLLNKFQSLCDVAFAGERCEVDLADDLISDIFTTIGSVTVALLLILLLAIVASVVTSNKRATQGTYSPSRQEKEGSRVEMWNLMPPPAMERLI
Work on B3 yielded a ratio to parent of 1.
